According to patent US20220153864A1 (Pieris, published 2022):

How the values were obtained:
[1] = biological target: T1, recombinant cynomolgus GPC3 (cyGPC3) (R&D Systems) (cynomolgus, UniProt A0A2K5VK50 24-558); experiment: ELISA, cyGPC3 coated
Procedure: Recombinant huGPC3 (R&D Systems) at the concentration of 1 μg/mL in PBS was coated overnight on microtiter plates at 4° C. After five washes with 100 μL PBS-0.05% T (PBS supplemented with 0.05% (v/v) Tween 20), the plates were blocked with 2% BSA (w/v) in PBS-0.1% T (PBS-0.1% T-2% BSA) for 1 h at room temperature. After washing with 100 μL PBS-0.05% T (PBS supplemented with 0.05% (v/v) Tween 20) five times, exemplary fusion proteins (SEQ ID NOs: 87 and […] and CD137Ac1-Fusion 1 to 7) or the GPC3 antibody as include in the fusion proteins (SEQ ID NOs: 81 and 82) at different concentrations were added to the wells and incubated for 1 h at room temperature, followed by another wash step. Bound molecules under study were detected by incubation with 1:5000 diluted anti-human IgG Fc-HRP (Jackson Laboratory) in PBS-0.1% T-2% BSA. After an additional wash step, fluorogenic HRP substrate (QuantaBlu, Thermo) was added to each well and the fluorescence intensity was detected using a fluorescence microplate reader.
The same ELISA setup was also employed to determine the binding potency of fusion proteins to cynomolgus GPC3 and huCD137, where recombinant cyGPC3 (R&D Systems) or huCD137-His (recombinant human CD137 with C-terminal polyhistidine tag, R&D Systems) was instead coated on a microtiter plate. The testing agents were similarly titrated and bound agents were detected via anti-NGAL-HRP. […]

[2] = biological target: human CD137 expressed on cells (Flp-In-CHO::huCD137; NFkB-luc2/CD137 Jurkat cells) (human, UniProt Q07011 24-255); experiment: cell-based or functional assay
Chain of human CD137 expressed on cells (Flp-In-CHO::huCD137; NFkB-luc2/CD137 Jurkat cells) (Q07011 24-255): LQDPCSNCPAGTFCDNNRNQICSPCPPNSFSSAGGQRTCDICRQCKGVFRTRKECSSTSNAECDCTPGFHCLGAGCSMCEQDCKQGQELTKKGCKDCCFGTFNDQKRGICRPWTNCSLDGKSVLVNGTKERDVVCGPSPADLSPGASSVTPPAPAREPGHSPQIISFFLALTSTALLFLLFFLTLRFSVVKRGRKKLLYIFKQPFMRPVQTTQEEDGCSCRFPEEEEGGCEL

[3] = biological target: T2, human GPC3 expressed on cells (SK-Hep1::huGPC3; HepG2, Hep3B and MKN-45 tumor cells) (human, UniProt P51654 25-554); experiment: flow cytometry on Hep3B tumor cells (GPC3 positive)
T2 construct: whole, on cells; also called GPC3-positive tumor cells; human GPC3-expressing cells
T2 sequence (P51654 25-554 limits assumed): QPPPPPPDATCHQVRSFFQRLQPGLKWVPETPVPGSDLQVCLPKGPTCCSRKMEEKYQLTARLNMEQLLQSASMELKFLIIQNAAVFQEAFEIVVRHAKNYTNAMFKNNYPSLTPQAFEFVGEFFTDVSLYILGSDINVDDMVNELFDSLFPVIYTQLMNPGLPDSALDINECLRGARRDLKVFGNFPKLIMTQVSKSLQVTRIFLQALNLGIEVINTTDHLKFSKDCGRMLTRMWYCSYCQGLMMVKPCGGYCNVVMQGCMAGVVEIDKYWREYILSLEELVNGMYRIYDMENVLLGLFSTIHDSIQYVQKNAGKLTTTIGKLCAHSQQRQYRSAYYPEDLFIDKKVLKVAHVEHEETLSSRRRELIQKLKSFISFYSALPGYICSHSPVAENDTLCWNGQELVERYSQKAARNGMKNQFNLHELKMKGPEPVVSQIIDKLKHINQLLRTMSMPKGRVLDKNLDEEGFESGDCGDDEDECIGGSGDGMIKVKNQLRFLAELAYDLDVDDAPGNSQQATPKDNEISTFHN
Procedure: (§1) 5×10⁴ cells per well were incubated for 1 h in ice-cold PBS containing 5% fetal calf serum (PBS-FCS). A dilution series of the testing molecule were added to the cells and incubated for 1 h on ice. Cells were washed twice with PBS and then incubated with a goat anti-hlgG Alexa647-labeled antibody or goat anti-hlgG Alexa488-labeled antibody for 30 min on ice. Cells were subsequently washed and analyzed using iQue Flow cytometer (Intellicyte Screener). Mean geometric fluorescent signals were plotted and fitted with Graphpad software. The geometric means of the fluorescence intensity were used to calculate EC₅₀ values using a four-parameter logistic regression with bottom fixed to background.
(§2) For flow cytometric analysis, tumor cell lines with different GPC3 expression levels (high to moderate expression: HepG2>Hep3B>MKN-45) and GPC3 negative cell line NCI-N87 were incubated with an exemplary fusion protein SEQ ID NOs: 87 and 82, the GPC3 antibody or the CD137 specific lipocalin mutein (Fc fusion) as included in the fusion protein (SEQ ID NOs: 81 and 82 and SEQ ID NO: 98, respectively), a reference CD137 antibody SEQ ID NOs: 26 and 27, or an isotype control (SEQ ID NO: 24 and 25), and detected using a fluorescently labeled anti-human IgG antibody as described in Example 6.

[4] = biological target: T2, human GPC3 expressed on cells …; experiment: flow cytometry on MKN-45 tumor cells (GPC3 moderate)
Procedure: as §1, §2

[5] = biological target: T2, human GPC3 expressed on cells …; experiment: flow cytometry on SK-Hep1::huGPC3 cells, anti-human IgG detection
Procedure: (§3) For flow cytometric analysis, respective cell lines were incubated with an exemplary fusion protein (SEQ ID NOs: 87 and 82), the GPC3 antibody or the CD137 specific lipocalin mutein (Fc fusion) as included in the fusion protein (SEQ ID NOs: 81 and 82 and SEQ ID NO: 98, respectively), a reference CD137 antibody SEQ ID NOs: 26 and 27, or an isotype control (SEQ ID NOs: 24 and 25) and detected using a fluorescently labeled anti-human IgG antibody in FACS analysis as described in the following:
as §1

[6] = biological target: T1, recombinant cynomolgus GPC3 (cyGPC3) …; experiment: SPR (Biacore T200), binder captured by anti-human IgG Fc, cyGPC3 as analyte, 1:1 model
Procedure: The anti-human IgG Fc antibody (GE Healthcare) was immobilized on a CM5 sensor chip using standard amine chemistry: the carboxyl groups on the chip were activated using 1-ethyl-3-(3-dimethylaminopropyl)-carbodiimide (EDC) and N-hydroxysuccinimide (NHS). Subsequently, anti-human IgG Fc antibody solution (GE Healthcare) at a concentration of 25 μg/mL in 10 mM sodium acetate (pH 5.0) was applied at a flow rate of 5 μL/min until an immobilization level of 6000-10000 resonance units (RU) was achieved. Residual non-reacted NHS-esters were blocked by passing a solution of 1M ethanolamine across the surface. The reference channel was treated in an analogous manner. Subsequently, testing fusion proteins (SEQ ID NOs: 87 and 82 and CD137Ac1-Fusion 1) or the GPC3 antibody as included in the fusion protein (SEQ ID NOs: 81 and 82) at 0.2 μg/ml in HBS-EP+ buffer was captured by the anti-human IgG-Fc antibody at the chip surface for 180 s at a flow rate of 10 μL/min. After each capture step, the needle was washed.
The binding assay was carried out with a contact time of 180 s, a dissociation time of 900 s, and a flow rate of 30 μL/min. After each injection, the needle was cleaned with 40 mM NaOH+20% isopropanol. All measurements were performed at 25° C. […] Prior to the protein measurements, three startup cycles were performed for conditioning purposes. Data were evaluated with Biacore T200 Evaluation software (v2.0). Double referencing was used and the 1:1 binding model was used to fit the raw data.

[7] = biological target: T2, human GPC3 expressed on cells …; experiment: flow cytometry, SK-Hep1 cells transfected with human GPC3, detection labelled anti-human IgG, GeoMean RL1-H [upper graph]
Procedure: as §3, §1

EC50 [1]: 0.34 nM | EC50, CD137 Bioassay (NFkB-luc2/CD137 Jurkat cells co-cultured with Hep3B) [2]: 0.78 nM | EC50, CD137 Bioassay (NFkB-luc2/CD137 Jurkat cells co-cultured with HepG2) [2]: 0.38 nM | EC50 [3]: 7.92 nM | EC50 [4]: 2.59 nM | EC50 [5]: 23.2 nM | Kd [6]: 0.936 nM | koff [6]: 0.000275 s⁻¹ | kon [6]: 293000 M⁻¹ s⁻¹ | EC50 (read off the curve) [7]: ~5 nM
B1: fusion protein SEQ ID NOs: 87 and 82 (bispecific antibody, human IgG4 S228P, kappa, F234A L235A)
heavy: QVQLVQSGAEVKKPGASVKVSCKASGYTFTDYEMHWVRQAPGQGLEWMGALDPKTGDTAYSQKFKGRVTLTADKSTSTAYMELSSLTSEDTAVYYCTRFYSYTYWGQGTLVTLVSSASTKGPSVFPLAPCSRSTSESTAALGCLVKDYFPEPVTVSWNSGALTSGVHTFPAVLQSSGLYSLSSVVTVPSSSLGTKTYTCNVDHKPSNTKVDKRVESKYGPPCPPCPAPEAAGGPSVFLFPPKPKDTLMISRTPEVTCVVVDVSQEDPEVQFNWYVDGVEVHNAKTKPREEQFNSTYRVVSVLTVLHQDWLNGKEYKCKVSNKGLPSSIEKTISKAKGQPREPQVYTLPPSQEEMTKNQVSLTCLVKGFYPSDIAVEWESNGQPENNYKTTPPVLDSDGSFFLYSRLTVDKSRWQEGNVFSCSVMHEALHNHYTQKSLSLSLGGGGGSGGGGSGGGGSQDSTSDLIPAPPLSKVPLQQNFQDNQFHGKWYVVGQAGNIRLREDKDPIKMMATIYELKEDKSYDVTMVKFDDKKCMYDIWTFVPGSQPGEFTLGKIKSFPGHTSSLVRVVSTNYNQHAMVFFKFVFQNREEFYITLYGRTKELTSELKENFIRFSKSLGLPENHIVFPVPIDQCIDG
light: DVVMTQSPLSLPVTPGEPASISCRSSQSLVHSNRNTYLHWYLQKPGQSPQLLIYKVSNRFSGVPDRFSGSGSGTDFTLKISRVEAEDVGVYYCSQNTHVPPTFGQGTKLEIKRTVAAPSVFIFPPSDEQLKSGTASVVCLLNNFYPREAKVQWKVDNALQSGNSQESVTEQDSKDSTYSLSSTLTLSKADYEKHKVYACEVTHQGLSSPVTKSFNRGEC
notes: also called exemplary fusion protein
